One test addresses T1, NTSR1 on A549 cells (Homo sapiens, UniProt P30989).
T1 construct: endogenous in cells; host or cells: A549 (NSCLC)
Kind of test: Flow cytometry (FACS) binding of anti-NTSR1 antibodies on A549 cells. The note with it: for FACS binding (%, 1 μg/ml) / FACS binding (%, 10 μg/ml): A549 cells; for FACS binding (%, 1 μg/ml): antibody 1 μg/ml; for FACS binding (%, 10 μg/ml): antibody 10 μg/ml; for EC50: relative mean fluorescence intensity (MFI) on A549 cells; for binding affinity to cell surface NTSR1 compared with h7C3-1: FACS, h7C3-1 variants. The procedure: A total of 1×10^6 cells were reacted with an anti-NTSR1 antibody in 100 μL of FACS buffer (PBS containing 0.5% BSA) for 60 minutes at 4° C. and washed two times to remove excess antibody. Secondary FITC (BD Pharmingen™) conjugated mouse anti-human IgG antibodies were incubated for an additional 60 minutes on ice. Cells were washed again and followed by an additional incubation with 1 ml PBS containing 0.5 mg/mL propidium iodide at 4° C. for 10 minutes. Data were collected on 10,000 living cells by FACS (Bio-Red S3e cell sorter). Fluorescence intensity from channel FL-1 was calculated with Flow Jo flow […] cytometry analysis software.

Test [1] has as its system cyclic ECL2 peptide of NTSR1. In words: NTSR1-binding affinity ELISA (alanine scanning variants). Details: species or system human. The note with it: for effect on h7C3 affinity (in words): compared with parental h7C3. The procedure:
The NTSR1-binding capacity of different antibodies were measured by ELISA. Briefly, NeutrAvidin 96-well plates (Pierce Cat:15128) were coated with cyL2-Biotin peptides at a final concentration of 5 μg/ml at […]. On the following day, the coating solution was removed, and the plates were blocked with 5% (v/v) non-fat dry milk in phosphate buffer saline (PBS) for 1 hour. After washing with PBST, gradient concentrations of anti-NTSR1 antibodies were added in triplicate. After 1 hour of incubation, the plate was washed three times with PBST, followed by the addition of horseradish peroxidase (HRP)-conjugated goat anti-human IgG Fc antibody (100 μL) into each well for an additional hour at RT. Finally, 100 μL of tetramethylbenzidine (TMB) substrate was added into each well to produce color for visualization. After 2 minutes of incubation, 100 μL of 2M H2SO4 was used to stop the reaction. The absorbance of each well was read at 450 nm with a plate reader. Flow cytometry

A further test deals with A549. Kind of test: In vitro cell cytotoxicity assay (CellTiter-Glo). The class given is cell-based. The procedure: (§1) The number of living cells were determined using the CellTiter-Glo® Luminescent Cell Viability Assay (Promega G7571). Cells were plated in 96-well opaque Costar plates (Cat number 136101). In brief, 500-2500 cells in 90 μL media were added to each well in quadruplicate and allowed to adhere for 16 hours. Anti-NTSR1 (dose range: 0-500 nM), anti-NTSR1-MMAE (dose range: 0-500 nM) or Paclitaxel (dose range: 0-100 nM) were added in […] 72-120 hours, medium was removed, and 200 μL of CellTiter-Glo® viability reagent contain culture medium (1:1) was added to each well and placed on an orbital shaker in the dark for 2 minutes. The plate was allowed to sit at RT for 10 minutes before being read on a GloMax® Explorer Multimode Microplate Reader (GM3500).

Another test has as its system PC-3. Kind of test: In vitro cell cytotoxicity assay (CellTiter-Glo). The class given is cell-based. The procedure:
as §1

Setting [2] is: alanine scanning of CDR L3 of h7C3-1.

This note sets out measurements from US12710427B2, “Anti-human neurotensin receptor 1 antibody and use thereof” (National Health Research Institutes, priority 2020, dated 2026).

Where only a bound is given, the exact number is not on record here.

Sequence of cyclic ECL2 peptide of NTSR1 (P30989 206-234 limits assumed): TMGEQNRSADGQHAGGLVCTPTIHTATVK
T1 sequence (P30989 whole entry): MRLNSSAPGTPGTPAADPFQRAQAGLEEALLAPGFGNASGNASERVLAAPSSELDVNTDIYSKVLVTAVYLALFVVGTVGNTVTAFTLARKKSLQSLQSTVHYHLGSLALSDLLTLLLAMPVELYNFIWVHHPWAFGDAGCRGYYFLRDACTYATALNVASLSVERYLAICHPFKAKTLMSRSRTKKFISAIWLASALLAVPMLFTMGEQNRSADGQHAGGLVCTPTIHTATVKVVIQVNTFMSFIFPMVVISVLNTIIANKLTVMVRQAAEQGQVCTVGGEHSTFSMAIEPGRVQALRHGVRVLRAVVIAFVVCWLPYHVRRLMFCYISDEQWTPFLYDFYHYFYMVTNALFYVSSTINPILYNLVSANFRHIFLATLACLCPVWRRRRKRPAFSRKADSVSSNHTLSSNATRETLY

B1: 7C3: anti-human NTSR1 antibody with VH SEQ ID NO: 1 and VL SEQ ID NO: 2, full-length IgG with human IgG1 constant domains (antibody, V domains shown)
VH: QVQLQQPGSVLVRPGASVKLSCKASGYTFTSSWIHWAKQRPGQGLEWIGQIRPNSGNTYYNEKFKVKATLTVDTSSSTAYVDLSSLTSEDSAVYYCARYYYGFDYWGQGTLVTVSS
VL: DVLMTQTPLSLPVSLGDQASISCRSSQSIVHSNGNTYLEWYLQKPGQSPKLLIYKVSNRFSGVPDRFSGSGSGTDFTLKISRVEAEDLGVYYCFQGSHLPWTFGGGTKLEIKR
modifications: human IgG1 constant domains; VH SEQUENCE; VL SEQUENCE
Regarding B1, the “binding to A549 cells” value in the test with NTSR1 on A549 cells (10 μg/ml, flow cytometry) was “strong binding”. For the same molecule, in the test with NTSR1 on A549 cells, the “FACS binding (%, 1 μg/ml)” value worked out at 16.8%; the “FACS binding (%, 10 μg/ml)” value is 83.2%; the “EC50” value came to 11.3 ± 2.8 µg/mL.

B2: D104A: h7C3 variant, D104A in CDR H3 (antibody, V domains shown)
VH: QVQLQQPGSVLVRPGASVKLSCKASGYTFTSSWIHWAKQRPGQGLEWIGQIRPNSGNTYYNEKFKVKATLTVDTSSSTAYVDLSSLTSEDSAVYYCARYYYGFAYWGQGTLVTVSS
VL: DVLMTQTPLSLPVSLGDQASISCRSSQSIVHSNGNTYLEWYLQKPGQSPKLLIYKVSNRFSGVPDRFSGSGSGTDFTLKISRVEAEDLGVYYCFQGSHLPWTFGGGTKLEIKR
B2: the “effect on h7C3 affinity (in words)” value in test [1] is “no effect”.

B3: Y105A: h7C3 variant, Y105A in CDR H3 (antibody, V domains shown)
VH: QVQLQQPGSVLVRPGASVKLSCKASGYTFTSSWIHWAKQRPGQGLEWIGQIRPNSGNTYYNEKFKVKATLTVDTSSSTAYVDLSSLTSEDSAVYYCARYYYGFDAWGQGTLVTVSS
VL: DVLMTQTPLSLPVSLGDQASISCRSSQSIVHSNGNTYLEWYLQKPGQSPKLLIYKVSNRFSGVPDRFSGSGSGTDFTLKISRVEAEDLGVYYCFQGSHLPWTFGGGTKLEIKR
Regarding B3, the “effect on h7C3 affinity (in words)” value in test [1] is on record as “no effect”.

B4: P100A: h7C3-1 variant, P100A in CDR L3 (antibody, V domains shown)
VH: QVQLQQPGSVLVRPGASVKLSCKASGYTFTSSWIHWAKQRPGQGLEWIGQIRPNSGNTYYNEKFKVKATLTVDTSSSTAYVDLSSLTSEDSAVYYCARYHYGFDYWGQGTLVTVSS
VL: DVLMTQTPLSLPVSLGDQASISCRSSQSIVHSNGNTYLEWYLQKPGQSPKLLIYKVSNRFSGVPDRFSGSGSGTDFTLKISRVEAEDLGVYYCFQGSHLAWTFGGGTKLEIKR
For the molecule B4, the “effect on h7C3-1 affinity for peptide (in words)” value (shortened to “effect on h7C3-1 affinity”) in test [1] (setting [2]) is “no effect”. For the same molecule, the “binding affinity to cell surface NTSR1 compared with h7C3-1” value (“binding affinity … compared with h7C3-1” for short) in the test with NTSR1 on A549 cells is “significantly diminished”.

B5: h7C3-1: 7C3 variant bearing Y100H mutation in CDR H3 (antibody, V domains shown)
VH: QVQLQQPGSVLVRPGASVKLSCKASGYTFTSSWIHWAKQRPGQGLEWIGQIRPNSGNTYYNEKFKVKATLTVDTSSSTAYVDLSSLTSEDSAVYYCARYHYGFDYWGQGTLVTVSS
VL: DVLMTQTPLSLPVSLGDQASISCRSSQSIVHSNGNTYLEWYLQKPGQSPKLLIYKVSNRFSGVPDRFSGSGSGTDFTLKISRVEAEDLGVYYCFQGSHLPWTFGGGTKLEIKR
As for B5, the “effect on h7C3 affinity (in words)” value in test [1] was “higher affinity”. Further, in the test with NTSR1 on A549 cells, the “FACS binding (%, 1 μg/ml)” value worked out at 41%; the “FACS binding (%, 10 μg/ml)” value stood at 93.1%; the “EC50” value came out at 7.6 ± 1.7 µg/mL.

B6: L99A: h7C3-1 variant, L99A in CDR L3 (antibody, V domains shown)
VH: QVQLQQPGSVLVRPGASVKLSCKASGYTFTSSWIHWAKQRPGQGLEWIGQIRPNSGNTYYNEKFKVKATLTVDTSSSTAYVDLSSLTSEDSAVYYCARYHYGFDYWGQGTLVTVSS
VL: DVLMTQTPLSLPVSLGDQASISCRSSQSIVHSNGNTYLEWYLQKPGQSPKLLIYKVSNRFSGVPDRFSGSGSGTDFTLKISRVEAEDLGVYYCFQGSHAPWTFGGGTKLEIKR
B6: in test [1] (setting [2]), the “decrease of h7C3-1 affinity” value stood at 70%.

B7: h7C3-2: 7C3 variant harboring Y100H mutation in CDR H3 and S97A mutation in CDR L3 (antibody, V domains shown)
VH: QVQLQQPGSVLVRPGASVKLSCKASGYTFTSSWIHWAKQRPGQGLEWIGQIRPNSGNTYYNEKFKVKATLTVDTSSSTAYVDLSSLTSEDSAVYYCARYHYGFDYWGQGTLVTVSS
VL: DVLMTQTPLSLPVSLGDQASISCRSSQSIVHSNGNTYLEWYLQKPGQSPKLLIYKVSNRFSGVPDRFSGSGSGTDFTLKISRVEAEDLGVYYCFQGAHLPWTFGGGTKLEIKR
Take B7: the “effect on h7C3-1 affinity” value in test [1] (setting [2]) is recorded as “no effect”. Besides, in the test with NTSR1 on A549 cells, the “FACS binding (%, 1 μg/ml)” value turned out to be 86.0%; the “FACS binding (%, 10 μg/ml)” value came to 99.5%; the “binding affinity … compared with h7C3-1” value was “higher affinity”; the “EC50” value was found to be 1.5 ± 0.5 µg/mL.

B8: N54A: h7C3-2 variant, N54A in CDR H2 (antibody, V domains shown)
VH: QVQLQQPGSVLVRPGASVKLSCKASGYTFTSSWIHWAKQRPGQGLEWIGQIRPASGNTYYNEKFKVKATLTVDTSSSTAYVDLSSLTSEDSAVYYCARYHYGFDYWGQGTLVTVSS
VL: DVLMTQTPLSLPVSLGDQASISCRSSQSIVHSNGNTYLEWYLQKPGQSPKLLIYKVSNRFSGVPDRFSGSGSGTDFTLKISRVEAEDLGVYYCFQGAHLPWTFGGGTKLEIKR
As for B8, in test [1] (h7C3-2 variants), the “binding affinity to peptide compared with h7C3-2 (in words)” value is recorded as “higher binding affinity”.

B9: G96A: h7C3-1 variant, G96A in CDR L3 (antibody, V domains shown)
VH: QVQLQQPGSVLVRPGASVKLSCKASGYTFTSSWIHWAKQRPGQGLEWIGQIRPNSGNTYYNEKFKVKATLTVDTSSSTAYVDLSSLTSEDSAVYYCARYHYGFDYWGQGTLVTVSS
VL: DVLMTQTPLSLPVSLGDQASISCRSSQSIVHSNGNTYLEWYLQKPGQSPKLLIYKVSNRFSGVPDRFSGSGSGTDFTLKISRVEAEDLGVYYCFQASHLPWTFGGGTKLEIKR
Turning to B9, the “effect on h7C3-1 affinity” value in test [1] (setting [2]) is “no effect”. In addition, in the test with NTSR1 on A549 cells, the “binding affinity … compared with h7C3-1” value was “significantly diminished”.

B10: H98A: h7C3-1 variant, H98A in CDR L3 (antibody, V domains shown)
VH: QVQLQQPGSVLVRPGASVKLSCKASGYTFTSSWIHWAKQRPGQGLEWIGQIRPNSGNTYYNEKFKVKATLTVDTSSSTAYVDLSSLTSEDSAVYYCARYHYGFDYWGQGTLVTVSS
VL: DVLMTQTPLSLPVSLGDQASISCRSSQSIVHSNGNTYLEWYLQKPGQSPKLLIYKVSNRFSGVPDRFSGSGSGTDFTLKISRVEAEDLGVYYCFQGSALPWTFGGGTKLEIKR
On to B10, for which the “effect on h7C3-1 affinity” value in test [1] (setting [2]) is “no effect”. Also, the “binding affinity … compared with h7C3-1” value in the test with NTSR1 on A549 cells is on record as “slightly affects”.

B11: h7C3-5: humanized variant; heavy chain SEQ ID NO: 15, light chain SEQ ID NO: 16 (antibody, V domains shown)
VH: QVQLVQSGAEVKKPGASVKVSCKASGYAFTSSWIHWVRQAPGQRLEWMGQIRPNSGNTYYNEKFKVRVTITRDTSASTAYMELSSLRSEDTAVYYCARYHYGFDYWGQGTLVTVSS
VL: DIVMTQTPLSLSVTPGQPASISCRSSQSIVHSNGNTYLEWYLQKPGQSPQLLIYKVSNRFSGVPDRFSGSGSGTDFTLKISRVEAEDVGVYYCFQGAHLPWTFGGGTKVEIKR
modifications: VH SEQUENCE; VL SEQUENCE
Take B11: the IC50 in the test with A549 and in the test with PC-3 was greater than 500 nM throughout.

B12: h7C3-5-MMAE: h7C3-5 conjugated with MMAE via cleavable valine-citrulline linker, average 3.8-4 MMAE per antibody (conjugate)
VH: QVQLVQSGAEVKKPGASVKVSCKASGYAFTSSWIHWVRQAPGQRLEWMGQIRPNSGNTYYNEKFKVRVTITRDTSASTAYMELSSLRSEDTAVYYCARYHYGFDYWGQGTLVTVSS
VL: DIVMTQTPLSLSVTPGQPASISCRSSQSIVHSNGNTYLEWYLQKPGQSPQLLIYKVSNRFSGVPDRFSGSGSGTDFTLKISRVEAEDVGVYYCFQGAHLPWTFGGGTKVEIKR
modifications: non-natural residues
notes: h7C3-5 conjugated with MMAE via cleavable valine-citrulline linker, average 3.8-4 MMAE per antibody
In the case of B12, the results for the IC50 with A549 and in the test with PC-3 were 33.1 ± 1.72 nM and 56.5 ± 7.1 nM, respectively.
